Measurements: the supplement of paper PMC9112550, “Optimization of the antimicrobial peptide Bac7 by deep mutational scanning” (BMC Biology, 2022)

system: Escherichia coli TOP10; test: shrunken log2 fold change of peptide-encoding DNA abundance (4.5 h post-induction vs induction); higher = less antimicrobial activity (less host growth inhibition); conditions: time post-induction: 4.5 h; library: site-saturation at positions 5, 18, 19, 20
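Also: peptides expressed intracellularly from a pBAD plasmid library in pooled LB shake-flask culture, induced with 0.3% L-arabinose, DNA abundance read by NGS, three biological replicates, DESeq2 with apeglm shrinkage.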

| Sequence | shrunken log2 fold change |
| --- | --- |
| RRIRCRPPRLPRPRPRPPCLPRP | -0.199 |
| RRIRIRPPRLPRPRPRPTMIPRP | -0.224 |
| RRIRTRPPRLPRPRPRPPDGPRP | -0.0813 |
| RRIRHRPPRLPRPRPRPIQNPRP | -0.252 |
| RRIRERPPRLPRPRPRPARYPRP | 0.24 |
| RRIRGRPPRLPRPRPRPFMCPRP | 0.224 |
| RRIRGRPPRLPRPRPRPMYSPRP | 0.208 |
| RRIRARPPRLPRPRPRPVNGPRP | -0.133 |
| RRIRWRPPRLPRPRPRPFNPPRP | -0.389 |
| RRIRKRPPRLPRPRPRPSICPRP | 0.242 |
| RRIRIRPPRLPRPRPRPTFDPRP | -0.188 |
| RRIRYRPPRLPRPRPRPHNPPRP | -1.15 |
| RRIRIRPPRLPRPRPRPERHPRP | 0.0733 |
| RRIRARPPRLPRPRPRPIYQPRP | 0.0519 |
| RRIRYRPPRLPRPRPRPNIKPRP | -1.13 |
| RRIRNRPPRLPRPRPRPAGYPRP | -0.0215 |
| RRIRSRPPRLPRPRPRPMNAPRP | 0.0215 |
| RRIRGRPPRLPRPRPRPRIGPRP | 0.779 |
| RRIRPRPPRLPRPRPRPWVHPRP | -0.0708 |
| RRIRRRPPRLPRPRPRPIDVPRP | -0.00284 |
| RRIRRRPPRLPRPRPRPIPEPRP | 0.12 |
| RRIRARPPRLPRPRPRPLLYPRP | 0.09 |
| RRIRGRPPRLPRPRPRPEEIPRP | 0.842 |
| RRIRPRPPRLPRPRPRPWYTPRP | -0.0297 |
| RRIRIRPPRLPRPRPRPSNWPRP | -0.257 |

| Sequence | shrunken log2 fold change |
| --- | --- |
| RRIRERPPRLPRPRPRPTRDPRP | 0.245 |
| RRIRCRPPRLPRPRPRPSKFPRP | -0.17 |
| RRIRLRPPRLPRPRPRPYWTPRP | -0.435 |
| RRIRDRPPRLPRPRPRPNCKPRP | 0.135 |
| RRIRTRPPRLPRPRPRPQLWPRP | -0.13 |
| RRIRGRPPRLPRPRPRPDVAPRP | 1.98 |
| RRIRNRPPRLPRPRPRPIQMPRP | -0.0365 |
| RRIRWRPPRLPRPRPRPSYVPRP | -0.651 |
| RRIRNRPPRLPRPRPRPGELPRP | -0.0397 |
| RRIRSRPPRLPRPRPRPIPQPRP | -0.402 |
| RRIRDRPPRLPRPRPRPDLDPRP | 0.632 |
| RRIRYRPPRLPRPRPRPMWFPRP | 0.0169 |
| RRIRYRPPRLPRPRPRPILVPRP | -0.237 |
| RRIRVRPPRLPRPRPRPVSSPRP | 0.105 |
| RRIRARPPRLPRPRPRPYWGPRP | -0.43 |
| RRIRSRPPRLPRPRPRPDHCPRP | -0.0225 |
| RRIRTRPPRLPRPRPRPNQDPRP | -0.308 |
| RRIRWRPPRLPRPRPRPTQRPRP | 0.133 |
| RRIRWRPPRLPRPRPRPKQMPRP | 0.113 |
| RRIRGRPPRLPRPRPRPMCAPRP | 1.88 |
| RRIRERPPRLPRPRPRPYCSPRP | -0.57 |
| RRIRHRPPRLPRPRPRPRMMPRP | -0.0987 |
| RRIRTRPPRLPRPRPRPCVCPRP | -0.206 |
| RRIRCRPPRLPRPRPRPPGGPRP | 0.539 |
| RRIRPRPPRLPRPRPRPKVFPRP | -0.0552 |

| Sequence | shrunken log2 fold change |
| --- | --- |
| RRIRVRPPRLPRPRPRPATYPRP | -0.0417 |
| RRIRNRPPRLPRPRPRPDEAPRP | 0.27 |
| RRIRPRPPRLPRPRPRPDQSPRP | 0.021 |
| RRIRVRPPRLPRPRPRPTSQPRP | 0.00273 |
| RRIRLRPPRLPRPRPRPDIGPRP | -0.189 |
| RRIRQRPPRLPRPRPRPSQIPRP | -0.0855 |
| RRIRFRPPRLPRPRPRPIRSPRP | -0.0101 |
| RRIRCRPPRLPRPRPRPVISPRP | -0.154 |
| RRIRWRPPRLPRPRPRPCQDPRP | -0.0575 |
| RRIRRRPPRLPRPRPRPVDFPRP | 0.178 |
| RRIRQRPPRLPRPRPRPDSEPRP | 0.138 |
| RRIRCRPPRLPRPRPRPEWPPRP | 0.331 |
| RRIRVRPPRLPRPRPRPFQDPRP | -0.0723 |
| RRIRKRPPRLPRPRPRPHEEPRP | 0.0526 |
| RRIRYRPPRLPRPRPRPCLAPRP | -0.838 |
| RRIRCRPPRLPRPRPRPMWIPRP | 0.085 |
| RRIRQRPPRLPRPRPRPAFCPRP | 0.585 |
| RRIRCRPPRLPRPRPRPSQKPRP | -0.169 |
| RRIRARPPRLPRPRPRPNLCPRP | 0.0317 |
| RRIRDRPPRLPRPRPRPPMKPRP | 0.131 |
| RRIRTRPPRLPRPRPRPILKPRP | -0.348 |
| RRIRLRPPRLPRPRPRPPHWPRP | 0.38 |
| RRIRRRPPRLPRPRPRPHKKPRP | 0.228 |
| RRIRQRPPRLPRPRPRPPAFPRP | 0.379 |
| RRIRGRPPRLPRPRPRPWLGPRP | 0.245 |

| Sequence | shrunken log2 fold change |
| --- | --- |
| RRIRWRPPRLPRPRPRPGIMPRP | 0.238 |
| RRIRLRPPRLPRPRPRPYDNPRP | -1.57 |
| RRIRARPPRLPRPRPRPMYIPRP | -0.345 |
| RRIRKRPPRLPRPRPRPGCCPRP | 0.722 |
| RRIRLRPPRLPRPRPRPICHPRP | -0.368 |
| RRIRERPPRLPRPRPRPERLPRP | 0.171 |
| RRIRKRPPRLPRPRPRPWELPRP | 0.221 |
| RRIRNRPPRLPRPRPRPQVLPRP | -0.0163 |
| RRIRTRPPRLPRPRPRPPWHPRP | 0.118 |
| RRIRQRPPRLPRPRPRPWTHPRP | 0.00902 |
| RRIRSRPPRLPRPRPRPFKWPRP | -0.24 |
| RRIRHRPPRLPRPRPRPGFYPRP | -0.363 |
| RRIRWRPPRLPRPRPRPPILPRP | 0.27 |
| RRIRQRPPRLPRPRPRPLWIPRP | -0.0179 |
| RRIRHRPPRLPRPRPRPFSQPRP | -0.302 |
| RRIRQRPPRLPRPRPRPQDQPRP | -0.276 |
| RRIRNRPPRLPRPRPRPQSMPRP | -0.567 |
| RRIRLRPPRLPRPRPRPTNRPRP | 0.267 |
| RRIRERPPRLPRPRPRPAPWPRP | 0.203 |
| RRIRMRPPRLPRPRPRPCMRPRP | 0.889 |
| RRIRVRPPRLPRPRPRPTIMPRP | -0.411 |
| RRIRYRPPRLPRPRPRPWPTPRP | -0.426 |
| RRIRTRPPRLPRPRPRPRGKPRP | 0.259 |
| RRIRLRPPRLPRPRPRPTAFPRP | 0.0454 |
| RRIRWRPPRLPRPRPRPWMVPRP | 0.0468 |

| Sequence | shrunken log2 fold change |
| --- | --- |
| RRIRSRPPRLPRPRPRPPMEPRP | -0.117 |
| RRIRMRPPRLPRPRPRPRCEPRP | 0.704 |
| RRIRSRPPRLPRPRPRPNRGPRP | 0.0138 |
| RRIRDRPPRLPRPRPRPCSPPRP | 0.0779 |
| RRIRCRPPRLPRPRPRPAKLPRP | 0.0355 |
| RRIRSRPPRLPRPRPRPQLQPRP | 0.104 |
| RRIRYRPPRLPRPRPRPGDCPRP | -0.189 |
| RRIRHRPPRLPRPRPRPTRDPRP | 0.054 |
| RRIRDRPPRLPRPRPRPLARPRP | 0.479 |
| RRIRPRPPRLPRPRPRPYSKPRP | -0.868 |
| RRIRGRPPRLPRPRPRPLMHPRP | 0.592 |
| RRIRERPPRLPRPRPRPPAVPRP | 0.349 |
| RRIRRRPPRLPRPRPRPTIPPRP | -0.0701 |
| RRIRSRPPRLPRPRPRPMHVPRP | -0.00553 |
| RRIRMRPPRLPRPRPRPVGRPRP | 0.724 |
| RRIRYRPPRLPRPRPRPCCTPRP | -0.418 |
| RRIRLRPPRLPRPRPRPDCCPRP | 0.0778 |
| RRIRTRPPRLPRPRPRPFEHPRP | -0.32 |
| RRIRSRPPRLPRPRPRPPVLPRP | 0.0563 |
| RRIRYRPPRLPRPRPRPCDMPRP | -0.01 |
| RRIRDRPPRLPRPRPRPWGLPRP | 0.0419 |
| RRIRYRPPRLPRPRPRPYNQPRP | -0.922 |
| RRIRARPPRLPRPRPRPVYCPRP | -0.175 |
| RRIRTRPPRLPRPRPRPQDPPRP | 0.167 |
| RRIRWRPPRLPRPRPRPCEMPRP | 0.0732 |

| Sequence | shrunken log2 fold change |
| --- | --- |
| RRIRFRPPRLPRPRPRPGTIPRP | -0.173 |
| RRIRIRPPRLPRPRPRPDGFPRP | -0.00369 |
| RRIRGRPPRLPRPRPRPHVAPRP | 0.724 |
| RRIRNRPPRLPRPRPRPNLSPRP | -0.0459 |
| RRIRARPPRLPRPRPRPNMCPRP | -0.339 |
| RRIRMRPPRLPRPRPRPFPWPRP | 0.114 |
| RRIRKRPPRLPRPRPRPGCQPRP | 0.702 |
| RRIRFRPPRLPRPRPRPKGLPRP | -0.146 |
| RRIRFRPPRLPRPRPRPMFFPRP | -0.549 |
| RRIRFRPPRLPRPRPRPYWMPRP | -0.371 |
| RRIRFRPPRLPRPRPRPNTDPRP | -0.384 |
| RRIRNRPPRLPRPRPRPASCPRP | -0.233 |
| RRIRSRPPRLPRPRPRPLFVPRP | -0.188 |
| RRIRMRPPRLPRPRPRPACYPRP | 0.223 |
| RRIRHRPPRLPRPRPRPGVNPRP | -0.000777 |
| RRIRWRPPRLPRPRPRPAPIPRP | 0.319 |
| RRIRNRPPRLPRPRPRPYWNPRP | -0.108 |
| RRIRNRPPRLPRPRPRPLHYPRP | -0.147 |
| RRIRFRPPRLPRPRPRPGMWPRP | 0.231 |
| RRIRGRPPRLPRPRPRPREDPRP | 1.47 |
| RRIRQRPPRLPRPRPRPRALPRP | 0.125 |
| RRIRYRPPRLPRPRPRPNWGPRP | -0.0851 |
| RRIRNRPPRLPRPRPRPLYAPRP | -0.0693 |
| RRIRERPPRLPRPRPRPQWEPRP | -0.0702 |
| RRIRFRPPRLPRPRPRPYNEPRP | -0.812 |
